From paper PMC11900802

What was measured:
[1] = immunofluorescence, nuclear FOXD1; conditions: glycan lost
Western blot of FOXD1 = conditions: glycan lost; control: vector control

B1: FOXD1: tunicamycin (protein)
parent chain: MTLSTEMSDASGLAEETDIDVVGEGEDEEDEEEEDDDEGGGGGPRLAVPAQRRRRRRSYAGEDELEDLEEEEDDDDILLAPPAGGSPAPPGPAPAAGAGAGGGGGGGGAGGGGSAGSGAKNPLVKPPYSYIALITMAILQSPKKRLTLSEICEFISGRFPYYREKFPAWQNSIRHNLSLNDCFVKIPREPGNPGKGNYWTLDPESADMFDNGSFLRRRKRFKRQPLLPPNAAAAESLLLRGAGAAGGAGDPAAAAALFPPAPPPPPHAYGYGPYGCGYGLQLPPYAPPSALFAAAAAAAAAAAFHPHSPPPPPPPHGAAAELARTAFGYRPHPLGAALPGPLPASAAKAGGPGASALARSPFSIESIIGGSLGPAAAAAAAAQAAAAAQASPSPSPVAAPPAPGSSGGGCAAQAAVGPAAALTRSLVAAAAAAASSVSSSAALGTLHQGTALSSVENFTARISNC
localisation_or_trafficking ([1]; control: untreated): decreases

B2: FOXD1: GEM+TM (protein)
parent chain: MTLSTEMSDASGLAEETDIDVVGEGEDEEDEEEEDDDEGGGGGPRLAVPAQRRRRRRSYAGEDELEDLEEEEDDDDILLAPPAGGSPAPPGPAPAAGAGAGGGGGGGGAGGGGSAGSGAKNPLVKPPYSYIALITMAILQSPKKRLTLSEICEFISGRFPYYREKFPAWQNSIRHNLSLNDCFVKIPREPGNPGKGNYWTLDPESADMFDNGSFLRRRKRFKRQPLLPPNAAAAESLLLRGAGAAGGAGDPAAAAALFPPAPPPPPHAYGYGPYGCGYGLQLPPYAPPSALFAAAAAAAAAAAFHPHSPPPPPPPHGAAAELARTAFGYRPHPLGAALPGPLPASAAKAGGPGASALARSPFSIESIIGGSLGPAAAAAAAAQAAAAAQASPSPSPVAAPPAPGSSGGGCAAQAAVGPAAALTRSLVAAAAAAASSVSSSAALGTLHQGTALSSVENFTARISNC
localisation_or_trafficking ([1]; control: GEM alone): decreases

B3: FOXD1: ALG3 knockdown (protein)
parent chain: MTLSTEMSDASGLAEETDIDVVGEGEDEEDEEEEDDDEGGGGGPRLAVPAQRRRRRRSYAGEDELEDLEEEEDDDDILLAPPAGGSPAPPGPAPAAGAGAGGGGGGGGAGGGGSAGSGAKNPLVKPPYSYIALITMAILQSPKKRLTLSEICEFISGRFPYYREKFPAWQNSIRHNLSLNDCFVKIPREPGNPGKGNYWTLDPESADMFDNGSFLRRRKRFKRQPLLPPNAAAAESLLLRGAGAAGGAGDPAAAAALFPPAPPPPPHAYGYGPYGCGYGLQLPPYAPPSALFAAAAAAAAAAAFHPHSPPPPPPPHGAAAELARTAFGYRPHPLGAALPGPLPASAAKAGGPGASALARSPFSIESIIGGSLGPAAAAAAAAQAAAAAQASPSPSPVAAPPAPGSSGGGCAAQAAVGPAAALTRSLVAAAAAAASSVSSSAALGTLHQGTALSSVENFTARISNC
localisation_or_trafficking ([1]; control: vector control): decreases
expression_or_secretion (Western blot of FOXD1): decreases
